From US20230235005A1 (INHIBRX, published 2023)
Where a chain is given by its changes, count along the chain named. Numbers in names are those of the source. Read-outs that look alike come from different tables or passages of the source.

How the values were obtained:
[1] = biological target: T1, PD-1 expressed on modified HEK-Blue IL-2 reporter cell clones (UniProt Q15116 25-288, limits assumed); experiment: cell-based or functional assay
[2] = biological target: T2, IL-2 receptor overexpressed on HEK-Blue IL-2 reporter cells (InvivoGen) (UniProt P01589 22-272; P14784 27-551; P31785 23-369, limits assumed); experiment: cell-based or functional assay
T2 sequence (looked up) 1: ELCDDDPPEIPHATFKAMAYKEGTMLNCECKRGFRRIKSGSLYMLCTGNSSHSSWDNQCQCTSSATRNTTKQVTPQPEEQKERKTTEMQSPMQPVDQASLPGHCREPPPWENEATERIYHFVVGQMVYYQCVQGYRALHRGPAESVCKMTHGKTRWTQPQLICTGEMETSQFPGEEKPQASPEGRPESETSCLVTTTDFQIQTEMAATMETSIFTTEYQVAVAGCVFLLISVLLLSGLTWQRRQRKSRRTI
T2 sequence (looked up) 2: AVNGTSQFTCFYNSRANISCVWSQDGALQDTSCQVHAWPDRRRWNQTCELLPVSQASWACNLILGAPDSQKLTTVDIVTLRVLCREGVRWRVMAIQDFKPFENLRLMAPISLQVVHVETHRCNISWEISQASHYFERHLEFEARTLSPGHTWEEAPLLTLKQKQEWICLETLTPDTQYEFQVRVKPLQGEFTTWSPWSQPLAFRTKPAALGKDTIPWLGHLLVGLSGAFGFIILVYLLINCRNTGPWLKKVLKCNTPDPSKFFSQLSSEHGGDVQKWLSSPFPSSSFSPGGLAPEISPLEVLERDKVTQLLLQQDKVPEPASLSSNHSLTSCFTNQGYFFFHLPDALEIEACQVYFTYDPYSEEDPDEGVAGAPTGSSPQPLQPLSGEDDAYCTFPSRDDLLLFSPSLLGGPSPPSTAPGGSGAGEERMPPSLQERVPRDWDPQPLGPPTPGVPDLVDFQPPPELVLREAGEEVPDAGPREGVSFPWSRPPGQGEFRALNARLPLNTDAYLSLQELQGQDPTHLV
T2 sequence (looked up) 3: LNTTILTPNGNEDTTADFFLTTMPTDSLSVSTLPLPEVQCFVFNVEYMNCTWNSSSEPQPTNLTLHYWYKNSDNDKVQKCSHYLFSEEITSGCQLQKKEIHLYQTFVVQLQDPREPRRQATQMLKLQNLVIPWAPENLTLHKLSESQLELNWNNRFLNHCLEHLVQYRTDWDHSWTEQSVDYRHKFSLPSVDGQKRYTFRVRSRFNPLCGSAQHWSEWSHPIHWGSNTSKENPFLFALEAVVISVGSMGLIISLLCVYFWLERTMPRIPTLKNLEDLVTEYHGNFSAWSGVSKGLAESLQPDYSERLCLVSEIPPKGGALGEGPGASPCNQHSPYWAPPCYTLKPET

Histidine-tagged CD25 = biological target: T3, Histidine-tagged CD25 (UniProt P01589 22-217, limits assumed); experiment: Biolayer Interferometry (ForteBio), immobilized His-tagged CD25
T3 construct: Immobilized in Biolayer Interferometry (ForteBio); not shown: histidine tag
T3 sequence (looked up): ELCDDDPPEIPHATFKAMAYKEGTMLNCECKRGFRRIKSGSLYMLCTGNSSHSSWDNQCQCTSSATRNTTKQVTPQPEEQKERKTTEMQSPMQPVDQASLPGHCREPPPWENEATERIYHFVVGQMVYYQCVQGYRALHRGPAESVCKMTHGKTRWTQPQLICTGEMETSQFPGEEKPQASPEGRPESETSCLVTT
Description: Polypeptides comprising a modified IL-2 fused to the C-terminus of a PD-1 binding VHH and control polypeptides were tested for binding to CD25 using Biolayer Interferometry (ForteBio).

[3] = biological target: IL-2 receptor together with PD-1 on HEK-Blue IL-2 reporter cells expressing PD-1 (UniProt P01589); experiment: cell-based or functional assay
IL-2 receptor together with PD-1 on HEK-Blue IL-2 reporter cells expressing PD-1, sequence (Q15116 25-288 limits assumed): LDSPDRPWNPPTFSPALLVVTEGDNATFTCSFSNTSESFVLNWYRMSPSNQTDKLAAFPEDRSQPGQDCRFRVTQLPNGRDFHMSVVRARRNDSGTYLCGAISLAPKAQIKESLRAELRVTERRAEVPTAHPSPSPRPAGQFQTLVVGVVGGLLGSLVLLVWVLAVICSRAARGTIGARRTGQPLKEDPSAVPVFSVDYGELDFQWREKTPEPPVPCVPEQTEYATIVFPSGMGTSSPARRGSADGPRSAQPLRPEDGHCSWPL

[4] = biological target: trimeric IL-2 receptor on HEK-Blue IL-2 reporter cells (UniProt P01589); experiment: cell-based or functional assay
[5] = biological target: trimeric IL-2 receptor (CD25, CD122, CD132) on HEK-Blue IL-2 reporter cells (UniProt P01589); experiment: cell-based or functional assay
[6] = biological target: T2, IL-2 receptor overexpressed on HEK-Blue …; experiment: cell-based or functional assay; remark: listed apart in the source
[7] = biological target: T1, PD-1 expressed on modified HEK-Blue …; experiment: cell-based or functional assay; remark: listed apart in the source
[8] = biological target: T2, IL-2 receptor overexpressed on HEK-Blue …; experiment: cell-based or functional assay; remark: listed apart in the source
[9] = biological target: T1, PD-1 expressed on modified HEK-Blue …; experiment: cell-based or functional assay; remark: listed apart in the source
[10] = biological target: T2, IL-2 receptor overexpressed on HEK-Blue …; experiment: cell-based or functional assay; remark: listed apart in the source
[11] = biological target: T1, PD-1 expressed on modified HEK-Blue …; experiment: cell-based or functional assay; remark: listed apart in the source
[12] = biological target: T1, PD-1 expressed on modified HEK-Blue …; experiment: cell-based or functional assay; remark: listed apart in the source
[13] = biological target: T2, IL-2 receptor overexpressed on HEK-Blue …; experiment: cell-based or functional assay; remark: listed apart in the source
[14] = biological target: T2, IL-2 receptor overexpressed on HEK-Blue …; experiment: cell-based or functional assay; remark: listed apart in the source
[15] = biological target: T1, PD-1 expressed on modified HEK-Blue …; experiment: cell-based or functional assay; remark: listed apart in the source
[16] = biological target: T2, IL-2 receptor overexpressed on HEK-Blue …; experiment: cell-based or functional assay; remark: listed apart in the source
[17] = biological target: T1, PD-1 expressed on modified HEK-Blue …; experiment: cell-based or functional assay; remark: listed apart in the source
[18] = biological target: T4, CD122/CD132 (heterodimeric IL-2R) on transiently transfected 293F cells (UniProt P14784 27-551; P31785 23-369, limits assumed); experiment: flow cytometry on transiently transfected 293F cells
T4 construct: whole, on cells; also called CD122 and CD132
T4 sequence (looked up) 1: T2 sequence (looked up) 2
T4 sequence (looked up) 2: T2 sequence (looked up) 3

[19] = biological target: T5, heterotrimeric IL-2R (CD25, CD122 and CD132) on transiently transfected 293F cells (UniProt P01589 22-272; P14784 27-551; P31785 23-369, limits assumed); experiment: as above
T5 construct: whole, on cells
T5 sequence (looked up) 1: T2 sequence (looked up) 1
T5 sequence (looked up) 2: T2 sequence (looked up) 2
T5 sequence (looked up) 3: T2 sequence (looked up) 3

T1 sequence (Q15116 25-288 limits assumed): as above

B1: polypeptide comprising modified IL-2 (T3A, H16A, Δ42, P65R, D84S, C125S) fused to the C-terminus of a PD-1-binding VHH (other, not shown: a dimerising Fc or GST; small tags and cut ends)
chain: APASSSTKKTQLQLEALLLDLQMILNGINNYKNPKLTRMLTKFYMPKKATELKHLQCLEEELKRLEEVLNLAQSKNFHLRPRSLISNINVIVLELKGSETTFMCEYADETATIVEFLNRWITFSQSIISTLT
notes: also called IL-2-T3A-H16A-ΔF42-P65R-D84S-C125S
[1]
  EC50 (nM), IL-2 reporter cells expressing PD-1: 0.005 nM
[2]
  EC50 (nM), HEK-Blue IL-2 reporter cells lacking PD-1: 4.2 nM
Histidine-tagged CD25
  binding result: no binding (tested: 300 nM)

B2: polypeptide comprising modified IL-2 (T3A, H16A, E61R, P65R, D84S, C125S) fused to the C-terminus of a PD-1-binding VHH (other, not shown: a dimerising Fc or GST; small tags and cut ends)
chain: APASSSTKKTQLQLEALLLDLQMILNGINNYKNPKLTRMLTFKFYMPKKATELKHLQCLERELKRLEEVLNLAQSKNFHLRPRSLISNINVIVLELKGSETTFMCEYADETATIVEFLNRWITFSQSIISTLT
[3]
  PD-1 Targeted EC50: 0.002 nM
  PD-1 Window: 1570
[4]
  Non-targeted EC50: 3.18 nM
[1]
  EC50 (nM), IL-2 reporter cells expressing PD-1: 0.002 nM
[2]
  EC50 (nM), HEK-Blue IL-2 reporter cells lacking PD-1: 3.2 nM
Histidine-tagged CD25
  binding result: no binding (tested: 300 nM)

B3: polypeptide comprising modified IL-2 (T3A, H16A, E61R, P65R, D84Y, C125S) fused to the C-terminus of a CD8a-binding VHH (protein, part only; not given: CD8a-binding VHH and any linker or Fc, part only)
chain, part: B2 chain with S84Y
[5]
  CD8a Targeted EC50, IL-2 reporter cells expressing CD8a (secreted alkaline phosphatase): 0.011 nM
  Non-targeted EC50, HEK-Blue IL-2 reporter cells lacking PD-1, NKp46 and CD8a (secreted alkaline phosphatase): 4.51 nM

B4: polypeptide comprising modified IL-2 (T3A, H16A, R38A, P65R, D84S, C125S) fused to the C-terminus of a PD-1-binding VHH (other, not shown: a dimerising Fc or GST; small tags and cut ends)
chain: B2 chain with R38A, R61E
[3]
  PD-1 Targeted EC50: 0.002 nM
  PD-1 Window: 978
[4]
  Non-targeted EC50: 1.97 nM
[1]
  EC50 (nM), IL-2 reporter cells expressing PD-1: 0.002 nM
[2]
  EC50 (nM), HEK-Blue IL-2 reporter cells lacking PD-1: 2 nM
Histidine-tagged CD25
  binding result: no binding (tested: 300 nM)

B5: polypeptide comprising modified IL-2 (T3A, H16A, P65R, D84S, I114F, C125S) fused to the C-terminus of a PD-1-binding VHH (other, not shown: a dimerising Fc or GST; small tags and cut ends)
chain: B2 chain with R61E, I114F
[1]
  EC50 (nM), IL-2 reporter cells expressing PD-1: 0.002 nM
[2]
  EC50 (nM), HEK-Blue IL-2 reporter cells lacking PD-1: 1.4 nM
Histidine-tagged CD25
  binding result: no binding (tested: 300 nM)

B6: polypeptide comprising modified IL-2 (T3A, H16A, K43E, Y45R, P65R, D84S, C125S) fused to the C-terminus of a PD-1-binding VHH (other, not shown: a dimerising Fc or GST; small tags and cut ends)
chain: B2 chain with K43E, Y45R, R61E
[1]
  EC50 (nM), IL-2 reporter cells expressing PD-1: 0.002 nM
[2]
  EC50 (nM), HEK-Blue IL-2 reporter cells lacking PD-1: 1.5 nM
Histidine-tagged CD25
  binding result: no binding (tested: 300 nM)

B7: polypeptide comprising modified IL-2 (T3A, H16A, F42R, P65R, D84S, C125S) fused to the C-terminus of a PD-1-binding VHH (other, not shown: a dimerising Fc or GST; small tags and cut ends)
chain: B2 chain with F42R, R61E
[1]
  EC50 (nM), IL-2 reporter cells expressing PD-1: 0.003 nM
[2]
  EC50 (nM), HEK-Blue IL-2 reporter cells lacking PD-1: 2.1 nM

B8: polypeptide comprising modified IL-2 (T3A, H16A, K43E, P65R, D84S, C125S) fused to the C-terminus of a PD-1-binding VHH (other, not shown: a dimerising Fc or GST; small tags and cut ends)
chain: B2 chain with K43E, R61E
[1]
  EC50 (nM), IL-2 reporter cells expressing PD-1: 0.001 nM
[2]
  EC50 (nM), HEK-Blue IL-2 reporter cells lacking PD-1: 1.1 nM
Histidine-tagged CD25
  binding result: no binding (tested: 300 nM)

B9: polypeptide comprising modified IL-2 (T3A, H16A, P65R, D84S, C125S) fused to the C-terminus of a PD-1-binding VHH (other, not shown: a dimerising Fc or GST; small tags and cut ends)
chain: B2 chain with R61E
[6]
  EC50 (nM), HEK-Blue IL-2: 0.512 nM
[7]
  EC50 (nM), HEK-Blue IL-2 + PD-1: 0.001 nM
[8]
  EC50 (nM), HEK-Blue IL-2: 0.3 nM
[9]
  EC50 (nM), HEK-Blue IL-2 + PD-1: 0.003 nM
[10]
  EC50 (nM), HEK-Blue IL-2: 0.512 nM
[11]
  EC50 (nM), HEK-Blue IL-2 + PD-1: 0.001 nM
[1]
  EC50 (nM), IL-2 reporter cells expressing PD-1: 0.001 nM
[12]
  EC50 (nM), IL-2 reporter cells expressing PD-1: 0.001 nM
[13]
  EC50 (nM), HEK-Blue IL-2 reporter cells lacking PD-1: 0.9 nM
[2]
  EC50 (nM), HEK-Blue IL-2 reporter cells lacking PD-1: 0.9 nM
[14]
  EC50 (nM), HEK-Blue IL-2: 0.3 nM
[15]
  EC50 (nM), HEK-Blue IL-2 + PD-1: 0.003 nM
[16]
  EC50 (nM), HEK-Blue IL-2: 0.512 nM
[17]
  EC50 (nM), HEK-Blue IL-2 + PD-1: 0.001 nM

B10: fusion protein comprising triple mutant IL-2 P65R-H16A-D84S (IL-2-RAS) fused to the N-terminus of the knob half of a heterodimeric Fc, paired with a hole Fc (Fc fusion)
chain 1: APTSSSTKKTQLQLEALLLDLQMILNGINNYKNPKLTRMLTFKFYMPKKATELKHLQCLEEELKRLEEVLNLAQSKNFHLRPRSLISNINVIVLELKGSETTFMCEYADETATIVEFLNRWITFCQSIISTLTPGGGGDKTHTCPPCPAPGGPSVFLFPPKPKDTLMISRTPEVTCVVVDVSHEDPEVKFNWYVDGVEVHNAKTKPREEQYNSTYRVVSVLTVLHQDWLNGKEYKCKVSNKALPAPIEKTISKAKGQPREPQVYTLPPCRDELTKNQVSLWCLVKGFYPSDIAVEWESNGQPENNYKTTPPVLDSDGSFFLYSKLTVDKSRWQQGNVFSCSVMHEALHNHYTQKSLSLSPGK
chain 2: KPGGGGDKTHTCPPCPAPGGPSVFLFPPKPKDTLMRSRTPEVTCVVVDVSHEDPEVKFNWYVDGVEVHNAKTKPREEQYNSTYRVVSVLTVLHQDWLNGKEYKCKVSNKALPAPIEKTISKAKGQPREPQVCTLPPSRDELTKNQVSLSCAVKGFYPSDIAVEWESNGQPENNYKTTPPVLDSDGSFFLVSKLTVDKSRWQQGNVFSCSVMHEALHNHYTQKSLSLSPGK
notes: also called IL-2-RAS-xELL knob Fc
[18]
  binding result: binds
[19]
  binding result: binds
